Paper PMC3269792

Legend:
[1] = biological target: KCNQ1-KCNQ1 dimer (QQ) of the tandem EQQ construct with I145C in the distal KCNQ1 subunit (human); experiment: cross-linking
[2] = biological target: KCNQ1-KCNQ1 dimer (QQ) of the tandem EQQ construct with I145C in the proximal KCNQ1 subunit (human); experiment: cross-linking

“KCNE1 K41C subunit of the tandem EQQ construct, cut off by HRV-3C protease (natural protein)” gave a percent cross-linking [1] of 50% and a percent cross-linking [2] of 90%.
